Patent US20240083999A1 (TRUSTEES OF TUFTS COLLEGE, published 2024)

B1: hIL-6-binding VHH JYK-A9 (Trx/JYK-A9/E) (VHH, not shown: large carriers)
VHH: QVQLVESGGGLVQAGDSLTLSCAASGRPFSSFAMGWFRQAPGKEREFVAAITWSRGTTHYADSVKGRFTISGDNAKNTVFLQMNSLKPEDTAVYYCAAADGWKVVSTASPAYDYWGQGTQVTVSS
B2: hIL-6-binding VHH JYK-D12 (Trx/JYK-D12/E) (VHH)
VHH: QLQLVESGGGLVQPGGSLGLSCAASGFTLAYYGIGWFRQAPGKEREGVACISSSDLSTYYADSVKGRFTISRDNAKDTVYLQMNSLKPEDTAVYYCAAGTWDLKFGYSRSNCVRSYEYDYWGQGTQVTVSS
notes: Expressed in E. coli as Trx/VHH/E fusion; also called JYK-D12 sh.ab1; expression vector JYR-3; not shown: Trx fusion partner of the construct Trx/JYK-D12/E
B3: hIL-6-binding VHH JYK-H9 (Trx/JYK-H9/E) (VHH, not shown: large carriers)
VHH: QLQLVETGGGLVQPGGSLRLSCAASGFTLDYYAIGWFRQAPGKEREGVSCLSSSDRSTYYVDSVKGRFTISRDDDKNTAYLQMNSLKPEDTATYYCAAGTWDLKWGYNISACVGSYEYDYWGQGTQVTVSS
B4: JYK-D12/JYK-D12 homodimer (VHH)
chain: QVQLVESGGGLVQPGGSLGLSCAASGFTLAYYGIGWFRQAPGKEREGVACISSSDLSTYYADSVKGRFTISRDNAKDTVYLQMNSLKPEDTAVYYCAAGTWDLKFGYSRSNCVRSYEYDYWGQGTQVTVSSGGGGSGGGGSGGGGSQVQLVESGGGLVQPGGSLGLSCAASGFTLAYYGIGWFRQAPGKEREGVACISSSDLSTYYADSVKGRFTISRDNAKDTVYLQMNSLKPEDTAVYYCAAGTWDLKFGYSRSNCVRSYEYDYWGQGTQVTVSS
notes: One polypeptide with two JYK-D12 units; also called VCR-108
B5: hIL-6-binding VHH JYK-A1 (Trx/JYK-A1/E) (VHH, not shown: large carriers)
VHH: QLQLAETGGGLVQPGGSLRLSCAASGFTLDYYAVGWFRQAPGKEREGISCISSSDLKTYYADSVKGRFTISRDYAKSTVSLQMNSLKPEDTGVYYCAAGTWDLKFGYNISACVGSYEYDYWDQGTQVTVSS

Legend:
[1] = biological target: T1, human interleukin 6 (hIL-6) (human, UniProt P05231 30-212); assay: cell-based or functional assay
[2] = biological target: T1, human interleukin 6 (hIL-6); assay: dilution ELISA, plate-coated hIL-6
Text: Based on sequence analysis, five clonally-independent families of the anti-hIL-6 VHHs, i.e., having sequence homology derived from independent B cell origins, were obtained. One family represented the majority of VHH family members that strongly bound to hIL-6 as determined by ELISA; therefore, multiple variants of this family were also sequenced. The anti-hIL-6 VHH coding DNA of selected VHHs was re-cloned into E. coli expression vectors and the anti-hIL-6 VHH proteins were expressed and purified using standard methods. The purified anti-hIL-6 VHHs were subjected to dilution ELISA analysis to assess their apparent affinities for binding to hIL-6. […] (See, e.g., Mukherjee, J., et al., 2012 PLoS ONE, 7, e299411). The EC₅₀ value of JYK-D12 for binding hTL-6 as determined by ELISA was about 0.4 nM.
Maxisorp ELISA plates (Nunc; Thermo Fisher USA) coated with recombinantly produced hIL-6 protein (0.5-5 μg/ml) overnight at 4° C. were used for immuno-binding assays (ELISA). Plates were washed 3 times with 1×PBS+0.1% Tween, followed by washing 3 times with 1×PBS. Washed plates were blocked (4-5% non-fat dry milk in 1×PBS+0.1% Tween) for 1 hour at room temperature (RT) with rocking. Serially diluted (1:5) hIL-6 VHH binding molecules targeting hIL-6, diluted in blocking solution, were incubated for 1 hour at RT with rocking and washed as above. […]

[3] = biological target: T2, mouse interleukin 6 (mIL-6) (mouse, UniProt P08505 25-211); assay: told from an in vivo STAT3 phosphorylation Western blot (FIG. 7), not a direct binding assay
T2 construct: the whole entry is named; also called mouse IL-6; mouse IL6
T2 sequence: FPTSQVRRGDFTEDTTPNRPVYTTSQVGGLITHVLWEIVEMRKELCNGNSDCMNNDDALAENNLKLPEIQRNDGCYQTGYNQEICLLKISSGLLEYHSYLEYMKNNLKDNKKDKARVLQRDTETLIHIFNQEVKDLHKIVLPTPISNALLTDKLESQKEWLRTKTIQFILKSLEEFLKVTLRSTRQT
Experimental: Experiments were conducted to determine whether the representative anti-hIL-6 VHH antibody cross-reacted with mouse IL-6 in vivo. In this experiment, one group of C57BL/6 mice was injected intraperitoneally with 1 μg of mouse IL-6 (mIL-6) in PBS; another group of C57BL/6 mice was injected with 1 μg of mouse IL-6 (mIL-6) plus 0.4 μg anti-hIL-6 VHH antibody. The animals were euthanized 30 minutes post-injection; their livers were isolated; and protein was extracted. Western blot analyses were carried out to assess the phosphorylation of STAT3 using P-STAT3 Y705 antibody (1:1,000 dilution) and STAT3 antibody (1:2,000 dilution), (Cell Signaling Technology (CST), Danvers, MA). The results of the Western blot analysis to assess the cross-reactivity of the anti-hIL-6 VHH antibody in mIL-6-induced hepatic STAT activation are shown in FIG. 7.

| Binder | complete neutralization, 7TD1 cell proliferation (neutralization) assay [1] [µg/mL] | further results |
| --- | --- | --- |
| B1 | 2 | – |
| B2 | 0.0009 | ED50, 7TD1 cell proliferation (neutralization) assay [1]: < 0.3 ng/mL; EC50 [2]: ~0.4 nM |
| B3 | 0.0027 | – |
| B4 | – | effective dose against Tocilizumab, in vivo neutralization assay [1]: 1000 fold; binding result [3]: binds |
| B5 | 0.0247 | – |
